Patent US20220380446A1 (ABL BIO, published 2022)
Read-outs that look alike come from different tables or passages of the source.

Experiments:
[1] = target: T1, human α-synuclein pre-formed fibrils (Human Alpha Synuclein Pre-formed Fibrils Type II, StressMarq SPR-317) (human, UniProt P37840 1-140); assay: sandwich ELISA, antibody coated, α-syn PFF added, 7B7-biotin detection
Experimental: (§1) Specifically, the antibodies were diluted with PBS by six-fold serial dilution from 400 nM to 0.009 nM. The diluted antibodies were added to a 96-well plate at 100 μL/well for coating. The plate was sealed and incubated at 4° C. for 16 hours. After washing with phosphate-buffered saline with Tween® (PBS-T; 0.05% Tween® 20) five times, the plate was blocked with 5% BSA in PBS 200 μL/well at 37° C. for 2 hours. After washing with PBS-T five times, α-syn PFF (2 μg/mL, 100 μL/well in 2% BSA in PBS) was added to the plate and incubated at 37° C. for 2 hours. After washing with PBS-T five times, 7B7-biotin antibody (anti-α-syn antibody; 1 μg/mL/100 μL/well, in 2% BSA in PBS) was added and incubated at 37° C. for 2 hours. After washing with PBS-T five times, the plate was incubated with horseradish peroxidase (HRP)-bound streptavidin in PBS with 2% BSA (1:5000, 1 mg/mL stock, 20 ng/well, 100 μL/well) at 37° C. for 1 hour. After washing with PBS-T five times, 3,3′,5,5′-tetramethylbenzidine (TMB) (100 μL/well) was added and incubated at room temperature for 5 minutes. The reaction was stopped by the addition of 0.5 N H₂SO₄ (50 μL/well). Optical absorbance at 450 nm was measured by using a plate reader, with absorbance at 650 nm subtracted from the reading.

[2] = target: T1, human α-synuclein pre-formed fibrils …; assay: SPR Biacore T200, antibody captured on Protein A chip, α-syn PFF analyte, 1:1 model
Experimental: The equipment used was Biacore® (GE Healthcare, Model T200). Protein A (GE Healthcare, Cat: 29-1275-56) was used as a chip, 10 mM glycine-HCl pH 1.5 (GE Healthcare, Cat: BR-1003-54) was used as a regeneration buffer, and HBS-EP was used as a running buffer and an analyte dilution and sample dilution buffer. […] A capture phase was carried out at a contact time of 60 seconds and a flow rate of 30 μL/min was used for a stabilization period of 60 seconds, with the target resonance units (RU) of fibril set to 10 (theoretical). In an association phase, the association time was set to 60 seconds and a flow rate was set to 60 μL/min. In a dissociation phase, the dissociation time was set to 180 seconds, and a flow rate was set to 60 μL/min. In a regeneration phase, the flow rate was set to 30 μL/min, and the regeneration time was set to 60 seconds. A 1:1 binding model was used for fitting, and the Biacore® T200 Evaluation software (GE Healthcare) was used for the evaluation.

[3] = target: T1, human α-synuclein pre-formed fibrils …; assay: sandwich ELISA, antibody coated, α-syn PFF added, 7B7-biotin detection; remark: listed apart in the source
Experimental: as §1

[4] = target: T1, human α-synuclein pre-formed fibrils …; assay: as above; remark: listed apart in the source
Experimental: as §1

[5] = target: T1, human α-synuclein pre-formed fibrils …; assay: as above; remark: listed apart in the source
Experimental: as §1

[6] = target: human α-synuclein oligomers (Dopamine HCL Stabilized Human Recombinant Alpha Synuclein Oligomers, StressMarq … (human, UniProt P37840 1-140)); assay: sandwich ELISA, antibody coated, oligomeric α-syn added, 7B7-biotin detection
Experimental: Human α-syn oligomers from StressMarq (Dopamine HCL Stabilized Human Recombinant Alpha Synuclein Oligomers, SPR-466) was used as the oligomeric α-syn in the assay.
In this sandwich ELISA, test antibodies were diluted with PBS by five-fold serial dilution from 80 nM to 0.005 nM. The serially diluted antibodies were added to a 96-well plate at 100 μL/well for coating. The plate was sealed and incubated at 4° C. for 16 hours. After washing with PBS-T five times, the plate was blocked with 5% BSA in PBS 200 μL/well at 37° C. for 2 hours. After washing with PBS-T five times, oligomeric α-syn (2 μg/mL, 100 μL/well in 2% BSA in PBS) was added and incubated at 37° C. for 2 hours. After washing with PBS-T five times, 7B7-biotin antibody (1 μg/mL, 100 μL/well, in 2% BSA in PBS) were added and incubated at 37° C. for 2 hours. After washing with PBS-T five times, the plate was incubated with Streptavidin-HRP in 2% BSA in PBS (1:5000, 1 mg/mL stock, 20 ng/well, 100 μL/well) at 37° C. for 1 hour. After washing with PBS-T five times, TMB (100 μL/well) was added and incubated at RT for 5 minutes. The reaction was stopped by the addition of 0.5 N H₂SO₄ (50 μL/well).

B1: hu1E4(V3_VL2) x Grabody B (bispecific antibody, human IgG1, kappa)
heavy 1: not shown
heavy 2: not shown
light: DVVMTQTPLSLSVTPGQPASISCRSSQSLVHSNGNTYLHWYLQKPGQSPQLLIYKVSNRFSGVPDRFSGSGSGTDFTLKISRVEAEDVGVYYCSQSTHVPRTFGQGTKLEIKRTVAAPSVFIFPPSDEQLKSGTASVVCLLNNFYPREAKVQWKVDNALQSGNSQESVTEQDSKDSTYSLSSTLTLSKADYEKHKVYACEVTHQGLSSPVTKSFNRGEC
notes: also called hu1E4(V3 VL2) × Grabody B
For B1, the EC50 [1] was 0.285 nM, the Kd [2] was 0.0982 nM and the koff [2] was 0.000992 s⁻¹. The kon [2] was 1.01e+07 M⁻¹ s⁻¹.

B2: hu1E4(V5_VL4) x Grabody B (bispecific antibody, human IgG1, kappa)
heavy 1: not shown
heavy 2: not shown
light: DVVMTQSPLSLPVTLGQPASISCRSSQSLVHSNGNTYLHWYQQRPGQSPRLLIYKVSNRFSGVPDRFSGSGSGTDFTLKISRVEAEDVGVYYCSQSTHVPRTFGGGTKVEIKRTVAAPSVFIFPPSDEQLKSGTASVVCLLNNFYPREAKVQWKVDNALQSGNSQESVTEQDSKDSTYSLSSTLTLSKADYEKHKVYACEVTHQGLSSPVTKSFNRGEC
notes: also called hu1E4(V5 VL4) × Grabody B
Binder B2 has an EC50 [3] of 0.284 nM, a Kd [2] of 0.167 nM and a koff [2] of 0.0016 s⁻¹. For the same binder, the kon [2] was 9.96e+06 M⁻¹ s⁻¹.

B3: hu1E4(V5_VL5) x Grabody B (bispecific antibody, human IgG1, kappa)
heavy 1: not shown
heavy 2: not shown
light: DVVMTQSPLSLPVTLGQPASISCRSSQSLVHSNGNTYLHWYQQRPGQSPRLLIYKVSNRFSGVPDRFSGSGSGTDFTLKISRVEAEDVGVYFCSQSTHVPRTFGGGTKVEIKRTVAAPSVFIFPPSDEQLKSGTASVVCLLNNFYPREAKVQWKVDNALQSGNSQESVTEQDSKDSTYSLSSTLTLSKADYEKHKVYACEVTHQGLSSPVTKSFNRGEC
notes: also called hu1E4(V5 VL5) × Grabody B
B3 was tested, and the EC50 [3] was 0.215 nM, the Kd [2] was 0.059 nM and the koff [2] was 0.00067 s⁻¹. The kon [2] was 1.14e+07 M⁻¹ s⁻¹.

B4: hu1E4(V6_VL3) x Grabody B (bispecific antibody, human IgG1, kappa)
heavy 1: not shown
heavy 2: not shown
light: DVVMTQSPLSLPVTLGQPASISCRSSQSLVHSNGNTYLHWFQQRPGQSPRRLIYKVSNRFSGVPDRFSGSGSGTDFTLKISRVEAEDVGVYYCSQSTHVPRTFGGGTKVEIKRTVAAPSVFIFPPSDEQLKSGTASVVCLLNNFYPREAKVQWKVDNALQSGNSQESVTEQDSKDSTYSLSSTLTLSKADYEKHKVYACEVTHQGLSSPVTKSFNRGEC
notes: also called hu1E4(V6 VL3) × Grabody B
B4 was tested, and the EC50 [3] was 1.12 nM.

B5: hu1E4(V2_VL2) x Grabody B (bispecific antibody, human IgG1, kappa)
heavy 1: not shown
heavy 2: not shown
light: DVVMTQTPLSLSVTPGQPASISCRSSQSLVHSNGNTYLHWYLQKPGQSPQLLIYKVSNRFSGVPDRFSGSGSGTDFTLKISRVEAEDVGVYYCSQSTHVPRTFGQGTKLEIKRTVAAPSVFIFPPSDEQLKSGTASVVCLLNNFYPREAKVQWKVDNALQSGNSQESVTEQDSKDSTYSLSSTLTLSKADYEKHKVYACEVTHQGLSSPVTKSFNRGEC
notes: also called hu1E4(V2 VL2) × Grabody B
Binder B5 has an EC50 [1] of 0.364 nM.

B6: hu1E4(V5_VL3) x Grabody B (bispecific antibody, human IgG1, kappa)
heavy 1: not shown
heavy 2: not shown
light: DVVMTQSPLSLPVTLGQPASISCRSSQSLVHSNGNTYLHWFQQRPGQSPRRLIYKVSNRFSGVPDRFSGSGSGTDFTLKISRVEAEDVGVYYCSQSTHVPRTFGGGTKVEIKRTVAAPSVFIFPPSDEQLKSGTASVVCLLNNFYPREAKVQWKVDNALQSGNSQESVTEQDSKDSTYSLSSTLTLSKADYEKHKVYACEVTHQGLSSPVTKSFNRGEC
notes: also called hu1E4(V5 VL3) × Grabody B
With B6 the EC50 [3] was 1.1 nM.

B7: hu1E4(V7_VL2) x Grabody B (bispecific antibody, human IgG1, kappa)
heavy 1: not shown
heavy 2: not shown
light: DVVMTQTPLSLSVTPGQPASISCRSSQSLVHSNGNTYLHWYLQKPGQSPQLLIYKVSNRFSGVPDRFSGSGSGTDFTLKISRVEAEDVGVYYCSQSTHVPRTFGQGTKLEIKRTVAAPSVFIFPPSDEQLKSGTASVVCLLNNFYPREAKVQWKVDNALQSGNSQESVTEQDSKDSTYSLSSTLTLSKADYEKHKVYACEVTHQGLSSPVTKSFNRGEC
notes: also called hu1E4(V7 VL2) × Grabody B
For B7, the EC50 [1] was 0.418 nM, the Kd [2] was 0.143 nM and the koff [2] was 0.0015 s⁻¹. The kon [2] was 1.05e+07 M⁻¹ s⁻¹.

B8: hu1E4(V2_VL2) (antibody, human IgG1, V domains shown)
VH: QVQLVQSGAEVKKPGASVKVSCKASGYTFTNYLIEWVRQAPGQGLEWIGVINPGSGGTNYNEKFKGKVTLTADKSISTAYMELSRLRSDDTAVYYCASGNYDTYWGQGTLVTVSS
VL: DVVMTQTPLSLSVTPGQPASISCRSSQSLVHSNGNTYLHWYLQKPGQSPQLLIYKVSNRFSGVPDRFSGSGSGTDFTLKISRVEAEDVGVYYCSQSTHVPRTFGQGTKLEIK
notes: Monospecific; human IgG1 and kappa constant regions
Work on B8 yielded an EC50 [4] of 0.57 nM.

B9: recombinant mouse 1E4 (antibody, V domains shown)
VH: QVQLQQSGAELVRPGTSVKVSCKASGYAFTNYLIEWVKQRPGQGLEWIGVINPGSGGTNYNEKFKGKATLTADKSSSTAYMQLSSLTSDDSAVYFCASGNYDTYWGQGTLVTVSA
VL: DVVMTQTPLSLPVSLGDQASISCRSSQSLVHSNGNTYLHWYLQKPGQSPKLLIYKVSNRFSGVPDRFSGSGSGTDFTLKISRVEAEDLGVYFCSQSTHVPRTFGGGTKLEIK
notes: also called rm1E4
For B9, the EC50 [5] was 2.59 nM.

B10: mouse hybridoma 1E4 (antibody, V domains shown)
VH: QVQLQQSGAELVRPGTSVKVSCKASGYAFTNYLIEWVKQRPGQGLEWIGVINPGSGGTNYNEKFKGKATLTADKSSSTAYMQLSSLTSDDSAVYFCASGNYDTYWGQGTLVTVSA
VL: DVVMTQTPLSLPVSLGDQASISCRSSQSLVHSNGNTYLHWYLQKPGQSPKLLIYKVSNRFSGVPDRFSGSGSGTDFTLKISRVEAEDLGVYFCSQSTHVPRTFGGGTKLEIK
notes: Mouse 1E4 made by the hybridoma; also called hy1E4; mouse 1E4 antibody
B10 showed an EC50 [6] of 6.56 nM and a Saturation point [6] of 3.17.

B11: hu1E4(V7_VL2) (antibody, human IgG1, V domains shown)
VH: QVQLVQSGAEVKKPGASVKVSCKASGYAFTNYLIEWVKQAPGQGLEWMGVINPGSGGTNYNEKFKGKATLTADKSISTAYMELSRLRSDDTAVYYCASGNYDTYWGQGTLVTVSS
VL: DVVMTQTPLSLSVTPGQPASISCRSSQSLVHSNGNTYLHWYLQKPGQSPQLLIYKVSNRFSGVPDRFSGSGSGTDFTLKISRVEAEDVGVYYCSQSTHVPRTFGQGTKLEIK
notes: as for B8
Binder B11 has an EC50 [4] of 0.339 nM.

B12: hu1E4(V3_VL2) (antibody, human IgG1, V domains shown)
VH: QVQLVQSGAEVKKPGASVKVSCKASGYAFTNYLIEWVKQAPGQGLEWIGVINPGSGGTNYNEKFKGKVTLTADKSISTAYMELSRLRSDDTAVYYCASGNYDTYWGQGTLVTVSS
VL: DVVMTQTPLSLSVTPGQPASISCRSSQSLVHSNGNTYLHWYLQKPGQSPQLLIYKVSNRFSGVPDRFSGSGSGTDFTLKISRVEAEDVGVYYCSQSTHVPRTFGQGTKLEIK
notes: as for B8
B12 showed an EC50 [4] of 0.577 nM.
